From patent US20080267948A1, “Croos-B Structure Binding Compounds” (priority 2005, published 2008)

Experiments:
[1] = biological target: T1, glycated haemoglobin (Hb-AGE) (Homo sapiens, UniProt P68871+P69905); experiment: ELISA binding of recombinant human BiP to Hb-AGE, with or without tPA or K2P-tPA; settings: cell culture supernatant of HEK 293E cells
T1 construct: purchased Sigma-Aldrich H7379
Description: Absorbance was read at 450 nm.
The threefold diluted cell supernatants were applied to the ELISA plate in duplicates and BiP binding was subsequently measured as described above. Coat efficiency was checked with specific anti-AGE antibody, anti-albumin antibody and anti-Hb antibody.

[2] = biological target: T2, glycated albumin (BSA-AGE) (Bos taurus, UniProt P02769); experiment: ELISA binding of recombinant human BiP to BSA-AGE, with or without tPA or K2P-tPA; parameters: species or system bovine; settings: cell culture supernatant of HEK 293E cells
T2 construct: purchased Sigma-Aldrich A-7906
T2 sequence (P02769 25-607): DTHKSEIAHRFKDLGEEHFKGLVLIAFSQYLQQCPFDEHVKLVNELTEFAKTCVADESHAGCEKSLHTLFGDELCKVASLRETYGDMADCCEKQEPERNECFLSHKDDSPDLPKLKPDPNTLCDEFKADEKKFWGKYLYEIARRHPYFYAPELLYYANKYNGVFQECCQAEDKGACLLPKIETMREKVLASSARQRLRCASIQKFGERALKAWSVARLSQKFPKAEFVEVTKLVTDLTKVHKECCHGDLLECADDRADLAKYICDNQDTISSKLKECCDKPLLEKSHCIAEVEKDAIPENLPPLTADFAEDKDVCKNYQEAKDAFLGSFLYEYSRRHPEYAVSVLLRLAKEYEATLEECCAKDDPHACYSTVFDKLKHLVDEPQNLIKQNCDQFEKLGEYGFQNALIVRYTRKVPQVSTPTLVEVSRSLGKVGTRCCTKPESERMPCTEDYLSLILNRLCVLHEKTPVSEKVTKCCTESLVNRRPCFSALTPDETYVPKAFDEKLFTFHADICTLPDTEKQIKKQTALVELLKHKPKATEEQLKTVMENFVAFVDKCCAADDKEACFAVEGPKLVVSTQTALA
Experimental: Proteins at 5 μg/ml were coated for 1 h at room temperature with agitation, in Microlon high-binding ELISA plates (Greiner) in 50 mM NaHCO3 pH 9.6. Buffer was coated as negative control. A twofold dilutions series of cell culture supernatant of HEK 293E cells over-expressing BiP was also coated to the plate for anti-FLAG-tag antibody control purposes. Plates were washed and blocked with ½*Blocking reagent (Roche). Undiluted cell culture supernatant enriched with 0.1% Tween20 was added to the wells with immobilized protein ligands and incubated for 1 h at room temperature with agitation. Medium was discarded and the plate was washed with PBS with 0.1% v/v Tween20. Mouse monoclonal anti-FLAG-tag antibody (Sigma, A8592, anti-FLAG M2PO conjugate) was diluted 1000× in PBS/0.1% Tween20 and added to all wells, including those that are coated with cell culture supernatant. After a 1 h incubation at room temperature with agitation and after washing, wells were overlayed with 3000× diluted RAMPO (DAKOCytomation) in PBS/0.1% Tween20. […] Absorbance was read at 450 nm.
Hb-AGE, Hb, BSA-AGE, BSA and buffer were coated. The threefold diluted cell supernatants were applied to the ELISA plate in duplicates and BiP binding was subsequently measured as described above. […]

tPA [3] = biological target: T3, tPA (Homo sapiens, UniProt P00750); experiment: ELISA binding of β2GPI to immobilized tPA; settings: tPA immobilized
T3 sequence (P00750 36-562): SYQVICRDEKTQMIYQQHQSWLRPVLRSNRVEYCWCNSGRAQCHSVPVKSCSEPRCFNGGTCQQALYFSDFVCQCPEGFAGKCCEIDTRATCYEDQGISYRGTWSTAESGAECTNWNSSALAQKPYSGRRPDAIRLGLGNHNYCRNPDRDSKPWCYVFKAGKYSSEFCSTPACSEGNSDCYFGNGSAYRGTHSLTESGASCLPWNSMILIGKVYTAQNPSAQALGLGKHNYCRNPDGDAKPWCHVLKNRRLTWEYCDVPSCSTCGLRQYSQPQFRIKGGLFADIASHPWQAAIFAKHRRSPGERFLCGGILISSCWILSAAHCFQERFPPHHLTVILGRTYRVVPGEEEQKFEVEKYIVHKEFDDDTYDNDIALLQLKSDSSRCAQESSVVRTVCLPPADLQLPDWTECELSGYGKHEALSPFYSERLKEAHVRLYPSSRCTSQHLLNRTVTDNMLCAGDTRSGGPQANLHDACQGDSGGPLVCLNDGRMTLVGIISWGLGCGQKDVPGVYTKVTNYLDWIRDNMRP
Experimental: (§1) Binding of β2GPI was assessed with monoclonal antibody 2B2^17.

[4] = system: anti-β2GPI auto-antibodies from antiphospholipid syndrome patients; experiment: Interference with binding of anti-β2GPI autoantibodies to immobilized β2GPI; parameters: species or system human; settings: concentration series of β2GPI in solution
Experimental: β2GPI by recombinant β2GPI and not by plasma derived β2GPI When plasma derived β2GPI is coated onto hydrophilic ELISA plates, anti-β2GPI auto-antibodies isolated from plasma of antiphospholipid syndrome autoimmune patients can bind^18. To study the influence of coincubations of the coated β2GPI with the antibodies together with plasma β2GPI or recombinant β2GPI, concentration series of β2GPI were added to the patient antibodies. Subsequently, binding of the antibodies to coated β2GPI was determined.

tPA [5] = biological target: T3, tPA; experiment: Plasminogen activation assay (tPA-mediated conversion of Plg to plasmin); format: biochemical; parameters: purchased Boehringer-Ingelheim Actilyse; settings: 100 μg ml^−1 protein or peptide, 400 pM tPA, substrate S-2251
Experimental: Plasmin (Plm) activity was assayed as described^4. Peptides and proteins that were tested for their stimulatory ability were used at 100 μg ml^−1, unless stated otherwise. […] Chromogenic substrate S-2251 (Chromogenix, Instrumentation Laboratory SpA, Milano, Italy) was used to measure Pls activity.
Purification of β2-glycoprotein I (β2GPI) was performed according to established methods^15,16. Recombinant human β2GPI was made using insect cells and purified as described^15. Plasma derived β2GPI as used in a factor XII ELISA, the Plg-activation assay and in the anti-phospholipid syndrome antibody ELISA (see below), was purified from fresh human plasma as described^16. […]
Solutions of fibrin peptide FP6, NH2—IDIKIR-COOH (Peptide facility, Dutch Cancer Institute, Amsterdam, the Netherlands) were prepared in various ways. […] Separate samples were prepared similarly and analyzed by electron spray ionization mass spectrometry (ESI-MS) to obtain information on the distribution of the peptide over putatively present oligomers (Dr C. Versluis, Department of Biomolecular Mass Spectrometry, Bijvoet Center for Biomolecular Research, Utrecht University, Utrecht, The Netherlands). […] Micrographs were recorded at 80 kV, at suitable magnifications on a JEM-1200EX electron microscope (JEOL, Japan).

factor XII = biological target: T4, factor XII (Homo sapiens, UniProt P00748); experiment: ELISA binding of β2GPI to immobilized factor XII; parameters: human factor XII from plasma (Calbiochem); purchased Calbiochem; host or cells: human plasma; settings: factor XII immobilized
T4 sequence (P00748 20-615): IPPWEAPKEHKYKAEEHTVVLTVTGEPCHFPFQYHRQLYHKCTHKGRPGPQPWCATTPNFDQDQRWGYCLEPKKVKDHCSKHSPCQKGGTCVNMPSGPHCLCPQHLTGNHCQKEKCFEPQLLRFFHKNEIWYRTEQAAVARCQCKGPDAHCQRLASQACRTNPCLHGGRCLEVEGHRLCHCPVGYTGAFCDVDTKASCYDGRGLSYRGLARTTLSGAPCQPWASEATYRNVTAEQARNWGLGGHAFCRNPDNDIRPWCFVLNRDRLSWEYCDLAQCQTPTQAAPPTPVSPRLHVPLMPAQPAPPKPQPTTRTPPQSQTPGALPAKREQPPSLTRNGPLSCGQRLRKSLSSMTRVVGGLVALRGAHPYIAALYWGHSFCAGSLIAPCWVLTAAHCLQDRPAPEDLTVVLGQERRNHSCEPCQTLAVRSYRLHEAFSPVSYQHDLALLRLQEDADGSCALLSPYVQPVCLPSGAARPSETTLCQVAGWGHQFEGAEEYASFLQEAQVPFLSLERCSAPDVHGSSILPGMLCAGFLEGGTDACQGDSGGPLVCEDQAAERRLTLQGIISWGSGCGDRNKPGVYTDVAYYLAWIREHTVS
Experimental: as §1

T1 sequence (P69905 2-142 limits assumed): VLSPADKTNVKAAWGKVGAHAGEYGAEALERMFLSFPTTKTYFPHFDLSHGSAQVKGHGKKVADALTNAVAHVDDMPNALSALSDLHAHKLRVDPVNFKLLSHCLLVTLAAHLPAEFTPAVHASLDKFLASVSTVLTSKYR
T1 sequence (P68871 2-147 limits assumed): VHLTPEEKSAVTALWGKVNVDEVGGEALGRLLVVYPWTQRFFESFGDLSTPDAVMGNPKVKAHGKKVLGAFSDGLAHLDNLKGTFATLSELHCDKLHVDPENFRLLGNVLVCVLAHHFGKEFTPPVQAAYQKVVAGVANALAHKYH

## BiP: recombinant human BiP with carboxy-terminal linker, FLAG-tag and His-tag, expressed in HEK 293E cells
[1]
  BiP binding to Hb-AGE and native haemoglobin: binds to glycated haemoglobin (Hb-AGE) and to a lesser extent to coated native haemoglobin
[2]
  BiP binding to BSA-AGE and native BSA: binds to glycated albumin (BSA-AGE) and not to native BSA

B1: Recombinant β2GPI: recombinant human β2-glycoprotein I made using insect cells (protein, UniProt P02749 20-345, looked up)
Beta-2-glycoprotein 1: GRTCPKPDDLPFSTVVPLKTFYEPGEEITYSCKPGYVSRGGMRKFICPLTGLWPINTLKCTPRVCPFAGILENGAVRYTTFEYPNTISFSCNTGFYLNGADSAKCTEEGKWSPELPVCAPIICPPPSIPTFATLRVYKPSAGNNSLYRDTAVFECLPQHAMFGNDTITCTTHGNWTKLPECREVKCPFPSRPDNGFVNYPAKPTLYYKDKATFGCHDGYSLDGPEEIECTKLGNWSAMPSCKASCKVPVKKATVVYQGERVKIQEKFKNGMLHGDKVSFFCKNKEKKCSYTEDAQCIDGTIEVPKCFKEHSSLAFWKTDASDVKPC
modifications: recombinant, insect cells
tPA [3]
  kD of binding to tPA: 2.3 µg/mL
[4]
  inhibition of binding of anti-β2GPI auto-antibodies to immobilized β2GPI: efficiently inhibits binding of anti-β2GPI auto-antibodies to immobilized β2GPI
tPA [5]
  stimulation of tPA-mediated conversion of Plg to plasmin: stimulate tPA-mediated conversion of Plg to plasmin
Factor XII
  kD of binding to factor XII: 0.9 µg/mL
